# According to patent US20060121510:
# Tested on: calmodulin (3′,5′-cyclic nucleotide phosphodiesterase activator, Sigma)
substance,measurement,value
"3′,5′-cyclic nucleotide phosphodiesterase (activator deficient from bovine brain, Sigma)","hydrolysis of 3′,5′-cyclic AMP to 5′-AMP during a 40 min preincubation (enzyme activity)",more than 90% is destroyed in a similar reaction containing calmodulin
